Source: patent US8088892B2, “Inhibitors of proteins from the Rho-GEF family” (Centre National de la Recherche Scientifique (C.N.R.S.), priority 2002, dated 2012)
“Also recorded” adds a separate entry of the source.

T1: Dbl (Homo sapiens, UniProt P10911)
T1 construct: Dbl (a.a. 498-826); expressed in transfected cells; host or cells: yeast
T1 sequence (P10911 498-826): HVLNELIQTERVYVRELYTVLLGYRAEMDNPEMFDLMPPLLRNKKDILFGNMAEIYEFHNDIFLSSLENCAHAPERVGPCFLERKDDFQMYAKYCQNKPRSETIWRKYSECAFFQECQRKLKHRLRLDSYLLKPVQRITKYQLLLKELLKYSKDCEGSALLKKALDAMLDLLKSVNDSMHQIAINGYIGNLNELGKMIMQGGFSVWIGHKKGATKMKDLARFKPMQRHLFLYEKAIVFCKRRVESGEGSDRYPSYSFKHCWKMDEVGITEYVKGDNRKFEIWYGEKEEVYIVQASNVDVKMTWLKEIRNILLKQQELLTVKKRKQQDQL

T2: p115RhoGEF (Homo sapiens, UniProt Q92888)
T2 construct: p115RhoGEF (a.a. 391-870); expressed in transfected cells; host or cells: yeast
T2 sequence (Q92888 391-870): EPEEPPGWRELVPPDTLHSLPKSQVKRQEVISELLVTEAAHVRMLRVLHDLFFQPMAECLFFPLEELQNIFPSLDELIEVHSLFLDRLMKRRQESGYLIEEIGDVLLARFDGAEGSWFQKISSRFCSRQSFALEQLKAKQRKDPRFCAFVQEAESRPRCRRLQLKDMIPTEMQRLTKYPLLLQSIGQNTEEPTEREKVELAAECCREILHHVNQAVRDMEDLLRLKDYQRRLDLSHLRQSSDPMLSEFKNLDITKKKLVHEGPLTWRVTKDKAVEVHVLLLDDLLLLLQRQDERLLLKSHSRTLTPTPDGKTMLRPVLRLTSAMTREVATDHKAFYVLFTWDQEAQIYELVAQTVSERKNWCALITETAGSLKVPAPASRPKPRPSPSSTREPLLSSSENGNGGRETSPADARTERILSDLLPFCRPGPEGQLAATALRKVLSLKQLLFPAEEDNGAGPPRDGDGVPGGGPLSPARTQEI


Experiments:
PC12 cells = assay: NGF-induced neurite outgrowth; format: cell-based; conditions: NGF 50 ng/ml
Method: PC12 were transfected with GFP-TRIPα (lack squares) or GFP (white diamonds) and subjected to a time-course exposure to NGF (50 ng/ml). At each time-point cells were fixed and the number of transfected cells with neurites was counted from at least 200 cells.
Since Trio is an activator of RhoA and is expressed in PC12 cells (Estrach et al., 2002), it was analysed whether TRIPα could interfere with serum-induced neurite retraction in NGF-differentiated PC12 cells. […] After NGF treatment, cells were subjected to serum addition (DMEM medium supplemented with 10% HS and 5% fetal calf serum (FCS)) from 0 to 15 min (FIG. 6A). Cells were then fixed and permeabilised (Estrach et al., 2002) and observed as described in FIG. 5. Cells with neurites are defined as cells with neurites of at least twice the length of the cell body.
However, since the NGF treatment was performed for 16 hours, it was still possible that the effect of TRIPα on the NGF-differentiation signal was masked by the long NGF exposure. To test this hypothesis, PC12 cells expressing GFP-TRIPα or […] were subjected to a time-course exposure to NGF (50 ng/ml) for 1 to 24 hours.

Vav = assay: Binding specificity of aptamers in yeast; set-up: key: +++^1 and +^1 represent respectively a full and a partial (see FIG. 1) binding capacity; +++^1 and +^1 represent respectively a full and a partial (see FIG. 1) binding capacity; −−^1 represents a lack of binding; conditions: RhoGEF Vav
Description: (§1) Trx represents the thioredoxin protein with no inserted peptide.
(§2) In order to identify specific inhibitors of TrioGEFD2, a recently developed strategy was used, this strategy being derived from the yeast two hybrid system, where the cDNA library of preys has been replaced by a combinatorial library of short peptides (20 amino acids) in fusion with the bacterial protein thioredoxin A (Colas et al., 1996). This strategy has been successfully used to isolate specific inhibitors of the cyclin-dependent kinases (Cdks), the cell cycle transcription factor E2F, or the viral HPV16 E6 oncoprotein and HBEV core protein (Colas et al., 1996; Butz et al., 2001; Fabrizzio et al., 1999; Geyer et al., 2000). The TrioGEFD2 bait was constructed as follows: plasmid pMTHATrio1848-2298 (Bellanger et al., 1998) was digested with EcoRI/XhoI and the insert cloned in pEG202EcoRI/XhoI to generate the bait pEG202TroGEFD2. Yeast strain EGY048 (Colas et al., 1996) was transformed with pEG202TrioGEFD2 and subsequently with the library of Thioredoxin constrained aptamers according to standard procedures (Ito et al., 1983). After transformation, cells were allowed to recover for 4 hours in galactose containing medium before plating on selective galactose medium. Of the 2×10^6 screened colonies, those growing in the selective medium were recovered and retested for interaction. […] Binding specificity was investigated by screening for interaction with the following baits: TrioDH2 (a.a. 1848-2096), TrioPH2 (a.a. 2107-2223), TrioGEFD1 (a.a. 1232-1629), Dbl (a.a. 498-826), Vav (ala. 172-598) (Zhang et al, 1994), GEFD2 domain of Kalirin (a.a. 1640-1980)(Penzes et al., 2001), p115RhoGEF (a.a. 391-870)(Wells et al, 2002) and PDZRhoGEF (a.a. 964-1362) (Fukuhara et al., 1999). None of these aptamers interacted with other RhoGEF members such as Dbl, Vav, and the RhoA-specific GEFs p115RhoGEF and PDZRhoGEF.

Dbl = target: T1, Dbl; assay: Binding specificity of aptamers in yeast; set-up: key: +++^1 and +^1 represent respectively a full and a partial (see FIG. 1) binding capacity; +++^1 and +^1 represent respectively a full and a partial (see FIG. 1) binding capacity; −−^1 represents a lack of binding; conditions: RhoGEF Dbl
Description: as §1, §2

PDZRhoGEF = assay: Binding specificity of aptamers in yeast; set-up: key: +++^1 and +^1 represent respectively a full and a partial (see FIG. 1) binding capacity; +++^1 and +^1 represent respectively a full and a partial (see FIG. 1) binding capacity; −−^1 represents a lack of binding; conditions: RhoGEF PDZRhoGEF
Description: as §1, §2

p115RhoGEF = target: T2, p115RhoGEF; assay: Binding specificity of aptamers in yeast; set-up: key: +++^1 and +^1 represent respectively a full and a partial (see FIG. 1) binding capacity; +++^1 and +^1 represent respectively a full and a partial (see FIG. 1) binding capacity; −−^1 represents a lack of binding; conditions: RhoGEF p115RhoGEF
Description: as §1, §2

| Molecule | Effect on NGF-induced neurite outgrowth, time course (PC12 cells; 1 to 24 hours) | Effect on NGF-induced neurite outgrowth after 16 hours NGF (PC12 cells; 16 hours) | Binding in yeast (Vav) | Binding in yeast (Dbl) | Binding in yeast (PDZRhoGEF) | Binding in yeast (p115RhoGEF) |
| --- | --- | --- | --- | --- | --- | --- |
| AREGADGAICGYNLATLVMLGPSERVFCPLCEPCSSDIYELM [TRIPα, 42-amino acid peptide corresponding to the variable region of TRIAPα] | enhances NGF-induced neurite outgrowth | had no visible effect on the NGF pathway; also recorded: does not seem to have an effect | – | – | – | – |
| TRIAPα: aptamer of 154 amino acids: variable region of 42 amino acids inserted into the thioredoxin protein; tested as GST fusion (protein) MSDKIIHLTDDSFDTDVLKADGAILVDFWAEWCGPAREGADGAICGYNLATLVMLGPSERVFCPLCEPCSSDIYELMGPCKMIAPILDEIADEYQGKLTVAKLNIDQNPGTAPKYGIRGIPTLLLFKNGEVASATKVGALSKGQLKEFLDANLA | – | – | −−^1 | −−^1 | −−^1 | −−^1 |
